Data on one substance can be found in patent US7514233.

The experiment deals with Recombinant HIV-1 integrase from pRP1012 with the His6 tag removed by thrombin (HIV-1) (UniProt P04585). The experiment is described as follows: cell-based or functional assay.

As to “His6-tagged Inip76/LEDGF expressed in E. coli from pCP6H75 (pRSETB) (from UniProt O75475 2-530)”, the IN protein remaining soluble after 45 minutes incubation at 4° C. and centrifugation at 20000 g was determined as 50%.
